The record followed here is patent US20240358813A1.

Read-outs that look alike come from different tables or passages of the source.

In test [1] the target is gp42 wild-type (1-223) (Epstein-Barr virus) (UniProt P03205). As to the kind of experiment: flow cytometry, stable CHO cells kept in 10 µg/ml puromycin, mAb at 1:200, goat anti-mouse IgG Alexa Fluor 488. (A flow cytometer gives signals particle by particle.)
The target in test [2] is gp350-F: EBV gp350 (1-864) ectodomain fused to the Newcastle disease virus fusion protein (NDV-F) tr (Epstein-Barr virus; Newcastle disease virus) (UniProt P03200).
For test [3] the target is unchanged. As to the kind of experiment: flow cytometry, […], mAb at 1:200, […].
For test [4] the target is unchanged. The source holds these as a separate data set.

Sequence of UniProt P03200 (P03200 1-864): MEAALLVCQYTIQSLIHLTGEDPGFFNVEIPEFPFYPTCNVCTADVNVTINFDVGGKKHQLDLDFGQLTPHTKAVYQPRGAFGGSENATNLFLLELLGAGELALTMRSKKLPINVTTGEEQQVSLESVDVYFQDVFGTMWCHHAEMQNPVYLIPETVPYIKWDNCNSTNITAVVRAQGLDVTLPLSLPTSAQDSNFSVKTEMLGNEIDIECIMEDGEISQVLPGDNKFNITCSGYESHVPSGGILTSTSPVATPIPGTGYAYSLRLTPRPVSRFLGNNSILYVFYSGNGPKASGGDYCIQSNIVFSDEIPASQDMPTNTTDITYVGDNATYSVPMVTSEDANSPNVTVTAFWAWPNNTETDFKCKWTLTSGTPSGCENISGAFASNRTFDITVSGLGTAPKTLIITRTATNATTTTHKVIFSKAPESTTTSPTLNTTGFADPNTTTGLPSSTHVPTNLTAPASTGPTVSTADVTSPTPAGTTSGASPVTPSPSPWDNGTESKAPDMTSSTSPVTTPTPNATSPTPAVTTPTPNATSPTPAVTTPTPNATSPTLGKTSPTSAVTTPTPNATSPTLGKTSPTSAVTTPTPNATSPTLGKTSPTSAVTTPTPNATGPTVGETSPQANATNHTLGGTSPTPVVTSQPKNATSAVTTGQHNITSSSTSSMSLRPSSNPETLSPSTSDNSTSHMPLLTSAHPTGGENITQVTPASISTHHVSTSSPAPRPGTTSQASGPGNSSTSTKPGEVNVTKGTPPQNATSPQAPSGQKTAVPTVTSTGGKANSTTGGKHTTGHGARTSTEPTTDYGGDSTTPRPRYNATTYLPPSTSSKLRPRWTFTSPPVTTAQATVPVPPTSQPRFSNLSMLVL
Sequence of UniProt P03205 (P03205 whole entry, the tested form may be a part): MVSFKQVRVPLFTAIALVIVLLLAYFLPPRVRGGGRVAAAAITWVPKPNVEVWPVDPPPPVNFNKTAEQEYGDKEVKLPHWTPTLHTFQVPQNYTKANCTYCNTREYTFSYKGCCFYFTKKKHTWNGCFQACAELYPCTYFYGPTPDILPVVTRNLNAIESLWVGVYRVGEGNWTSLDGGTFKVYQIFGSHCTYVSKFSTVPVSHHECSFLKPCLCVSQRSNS

As to anti-gp42 mAb (F-2-1) (antibody), the percent positive cells in test [1] was greater than 90%. Regarding “anti-gp350 monoclonal antibody (mAb) 72A1”, the percent positive cells in test [2] is 95%; in test [3], greater than 90%.

anti-gp350 mAb 2L10 (antibody) registered a percent positive cells in test [4] greater than 90%.
